Target: profilin1 (PFN1) (UniProt P07737)
Test: GST-PFN1 pull-down from cell lysate
Conditions: reference: wild type

| binding against the reference (sites S629) | binding against the reference (sites S665) | Substance |
| --- | --- | --- |
| stronger | – | DIAPH1 (from UniProt O60610) S629A |
| – | stronger | DIAPH1 (from UniProt O60610) S665A |
